This note sets out measurements from PMC3690481, “OTULIN Antagonizes LUBAC Signaling by Specifically Hydrolyzing Met1-Linked Polyubiquitin” (Cell, 2013).

This experiment deals with T1, FlAsH-tagged Met1-diUb (UniProt P0CG48 1-76; P0CG48 1-71, Lumio Green (FlAsH) on the C-terminal WCCPGCC motif).
T1 construct: ubiquitin, distal moiety, residues 1-76, joined by Gly76 in a peptide bond to Met1 of the proximal moiety; ubiquitin, proximal moiety; a C-terminal WCCPGCC motif replaces aa 72-76, so that residues 1-71 are left; Construct described in Ye et al., 2011; Chain: Ub(1-76)-Ub(1-71)-WCCPGCC; also called FlAsH-tagged Met1-diUb WT; Met1-linked diUb; source: expressed from pET17 plasmid, purified as …
Nature of the experiment: fluorescence polarisation; FlAsH-tagged diUb fixed (10 μl of 100 nM plus 10 μl protein), OTULIN C129A variants serially diluted; 20 mM Tris pH 7.4, 100 mM NaCl, 5 mM β-mercaptoethanol, 0.1 mg/ml BSA; one-site binding model; triplicate. The settings on record: both partners purified.

B1: OTULIN C129A TQK100-102AAA (enzyme, human, UniProt Q96BN8 1-352, looked up)
chain: MSRGTMPQPEAWPGASCAETPAREAAATARDGGKAAASGQPRPEMQCPAEHEEDMYRAADEIEKEKELLIHERGASEPRLSVAPEMDIMDYCKKEWRGNAAAATCMKMGYEEVSQKFTSIRRVRGDNYAALRATLFQAMSQAVGLPPWLQDPELMLLPEKLISKYNWIKQWKLGLKFDGKNEDLVDKIKESLTLLRKKWAGLAEMRTAEARQIACDELFTNEAEEYSLYEAVKFLMLNRAIELYNDKEKGKEVPFFSVLLFARDTSNDPGQLLRNHLNQVGHTGGLEQVEMFLLAYAVRHTIQVYRLSKYNTEEFITVYPTDPPKDWPVVTLIAEDDRHYNIPVRVCEETSL
notes: also called triple mutant TQK100-102 to AAA; source: E. coli Rosetta2 (DE3) pLacI, purified (Ni2+ resin, 3C protease, SEC)
With B1, the binding result is “binds”.

B2: OTULINcat C129A (aa 80–352) (domain or fragment, human, UniProt Q96BN8 80-352, looked up)
chain: LSVAPEMDIMDYCKKEWRGNTQKATCMKMGYEEVSQKFTSIRRVRGDNYAALRATLFQAMSQAVGLPPWLQDPELMLLPEKLISKYNWIKQWKLGLKFDGKNEDLVDKIKESLTLLRKKWAGLAEMRTAEARQIACDELFTNEAEEYSLYEAVKFLMLNRAIELYNDKEKGKEVPFFSVLLFARDTSNDPGQLLRNHLNQVGHTGGLEQVEMFLLAYAVRHTIQVYRLSKYNTEEFITVYPTDPPKDWPVVTLIAEDDRHYNIPVRVCEETSL
notes: FAM105B/OTULIN, human, catalytic OTU domain aa 80-352, catalytic Cys129 changed to Ala; Expressed from pOPIN-F. PDB 3ZNV is the wild-type parent of the same limits; also called OTULIN (80–352) C129A; OTULIN 80-352 C129A; source: E. coli Rosetta2 (DE3) pLacI, purified (Ni2+ resin, 3C protease, anion exchange, SEC)
B2: the Kd (in general, the constant that tells how readily two partners part at equilibrium) amounted to 196 nM.
